Changes are numbered by the printed parent chain. Like-named read-outs stand apart in the source and are kept apart here.
Columns and labels:
[1] = target: T1, sIL-6R (soluble IL-6 receptor; SBH Sciences) (human, UniProt P08887 20-365); test: SPR (BIAcore 3000), antibody on chip, sIL-6R analyte, pH 6.0
T1 construct: also called human IL-6R
T1 sequence: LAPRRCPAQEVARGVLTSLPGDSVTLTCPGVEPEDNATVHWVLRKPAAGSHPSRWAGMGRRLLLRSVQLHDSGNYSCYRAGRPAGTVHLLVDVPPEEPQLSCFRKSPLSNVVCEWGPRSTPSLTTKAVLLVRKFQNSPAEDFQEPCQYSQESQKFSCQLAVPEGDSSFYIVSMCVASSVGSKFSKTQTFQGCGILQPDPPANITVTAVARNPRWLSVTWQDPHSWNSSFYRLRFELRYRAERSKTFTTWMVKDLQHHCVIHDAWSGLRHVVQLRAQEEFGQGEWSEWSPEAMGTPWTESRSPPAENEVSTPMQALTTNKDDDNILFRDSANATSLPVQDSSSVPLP
Experimental: (§1) All SPR measurements were performed on a BIAcore 3000 instrument (GE Biosciences, Piscataway, N.J.). BIAcore Software-BIAcore 3000 Control Software V3.2 was used for the operation and control of the BIAcore 3000 instrument. BiaEvaluation Software V4.1 was used for the analysis of SPR data from the BIAcore 3000 instrument and data was plotted using Graph Pad Prism Software Version 5. […] The indicated antibodies were used as the ligand for the construction of the reference channel of the chip. […] Each sample was injected for 3 min at a flow rate of 30 μL/min to allow for binding to chip-bound antibody. Next, binding buffer without analyte was sent over the chip at the same flow rate to allow for dissociation of bound analyte. After 500s, remaining bound analyte was removed by injecting regeneration solution (1M Formic acid). Data was analyzed by using the Kinetics Wizard and the manual fitting programs that are both included with the BiaEvaluation Software V4.1.
(§2) SPR measurements at pH 7.4 and pH 6.0 were performed in parallel and KD values calculated according to the protocol as detailed in Example 1. The pH dependence is calculated as the ratio between the KD value at pH 6.0 and the KD value at pH 7.4, which indicates the fold of affinity decrease from the pH7.4 to pH6.0. If the pH dependence of a subject antibody described herein is over 1, it means that the antibody binds to IL-6R in such a pH-dependent manner that its binding to IL-6R at pH7.4 is higher than at pH6.0. If the pH dependence of a subject antibody described herein is lower than 1, it means that the antibody binds to IL-6R in such a pH-dependent manner that its binding to IL-6R at pH6.0 is higher than at pH7.4.

[2] = target: T1, sIL-6R (soluble IL-6 receptor; SBH …); test: SPR (BIAcore 3000), antibody on chip, sIL-6R analyte, pH 7.4; pH 7.4
Experimental: as §1
(§3) SPR measurements at pH 7.4 and pH 6.0 were performed in parallel and KD values calculated according to the protocol as detailed in Example 1. The pH dependence is calculated as the ratio between the KD value at pH 6.0 and the KD value at pH 7.4, which indicates the fold of affinity decrease from the pH7.4 to pH6.0. […]

[3] = target: T2, IL-6 receptor on DS-1 cells (ATCC CRL 11102) (UniProt P08887 20-468, limits assumed); test: cell-based or functional assay
T2 sequence (looked up): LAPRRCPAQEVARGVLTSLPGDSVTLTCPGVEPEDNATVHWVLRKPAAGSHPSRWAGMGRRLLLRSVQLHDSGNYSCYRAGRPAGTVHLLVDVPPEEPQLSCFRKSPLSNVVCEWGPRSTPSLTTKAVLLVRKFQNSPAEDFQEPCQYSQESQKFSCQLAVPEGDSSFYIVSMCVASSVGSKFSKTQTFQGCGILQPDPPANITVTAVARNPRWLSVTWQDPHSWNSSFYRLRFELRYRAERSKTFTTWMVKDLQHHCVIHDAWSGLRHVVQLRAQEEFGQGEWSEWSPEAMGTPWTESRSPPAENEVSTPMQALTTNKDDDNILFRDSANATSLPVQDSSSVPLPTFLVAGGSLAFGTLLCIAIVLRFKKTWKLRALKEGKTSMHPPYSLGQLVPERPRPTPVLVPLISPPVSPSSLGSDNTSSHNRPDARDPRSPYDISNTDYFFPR

[4] = target: T1, sIL-6R (soluble IL-6 receptor; SBH …); test: SPR (BIAcore 3000), antibody on chip, sIL-6R analyte, pH 7.4
Experimental: as §1, §2

[5] = target: T1, sIL-6R (soluble IL-6 receptor; SBH …); test: SPR (BIAcore 3000), antibody on chip, sIL-6R analyte, 25 C
Experimental: as §1

[6] = target: T1, sIL-6R (soluble IL-6 receptor; SBH …); test: SPR (BIAcore 3000), antibody on chip, sIL-6R analyte, pH 6.0; remark: listed apart in the source
Experimental: as §1, §2

[7] = target: T1, sIL-6R (soluble IL-6 receptor; SBH …); test: SPR (BIAcore 3000), antibody on chip, sIL-6R analyte, 25 C; remark: listed apart in the source
Outline: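 Antibody immobilized on chip, sIL-6R injected as analyte for 3 min at 30 μL/min, then buffer-only dissociation for 500 s. Surface regenerated with 1M formic acid between cycles. Kinetics obtained by fitting sensorgrams with Kinetics Wizard and manual fitting.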

[8] = target: T1, sIL-6R (soluble IL-6 receptor; SBH …); test: SPR (BIAcore 3000), antibody on chip, sIL-6R analyte, pH 7.4; remark: listed apart in the source
Experimental: as §1, §2

[9] = target: T1, sIL-6R (soluble IL-6 receptor; SBH …); test: SPR (BIAcore 3000), antibody on chip, sIL-6R analyte, pH 7.4; pH 7.4; remark: listed apart in the source
[10] = target: T1, sIL-6R (soluble IL-6 receptor; SBH …); test: SPR (BIAcore 3000), antibody on chip, sIL-6R analyte, 25 C; remark: listed apart in the source
Experimental: as §1

[11] = target: T1, sIL-6R (soluble IL-6 receptor; SBH …); test: as above; remark: listed apart in the source
Experimental: as §1

[12] = target: T1, sIL-6R (soluble IL-6 receptor; SBH …); test: SPR; ratio of KD at pH 6.0 to KD at pH 7.4; averaged between the two batches
Experimental: as §1, §3

[13] = target: T1, sIL-6R (soluble IL-6 receptor; SBH …); test: SPR (BIAcore 3000), antibody on chip, sIL-6R analyte, 25 C; remark: listed apart in the source
Experimental: as §1

[14] = target: T1, sIL-6R (soluble IL-6 receptor; SBH …); test: SPR; ratio of KD at pH 6.0 to KD at pH 7.4
Experimental: as §1, §2

B1: Tocilizumab (antibody, human IgG1, kappa, V domains shown)
VH: QVQLQESGPGLVRPSQTLSLTCTVSGYSITSDHAWSWVRQPPGRGLEWIGYISYSGITTYNPSLKSRVTMLRDTSKNQFSLRLSSVTAADTAVYYCARSLARTTAMDYWGQGSLVTVSS
VL: DIQMTQSPSSLSASVGDRVTITCRASQDISSYLNWYQQKPGKAPKLLIYYTSRLHSGVPSRFSGSGSGTDFTFTISSLQPEDIATYYCQQGNTLPYTFGQGTKVEIKR
notes: also called 25; 25(control)
[1]
  Kd: 1.79 nM
  koff: 0.000566 s⁻¹
  kon: 316000 M⁻¹ s⁻¹
[2]
  kon: 122000 M⁻¹ s⁻¹
[3]
  IC50 (µg/ml), inhibition of DS-1 cell proliferation, MTS assay, IL6 2 ng/mL: 0.33 µg/mL
[4]
  Kd: 2.85 nM
  koff: 0.000349 s⁻¹
[5]
  Kd: 2.85 nM
  Relative Affinity: 1 fold vs 25 (Tocilizumab)
  koff: 0.000349 s⁻¹
  kon: 122000 M⁻¹ s⁻¹
[6]
  Kd: 2 nM
  koff: 0.000564 s⁻¹
  kon: 283000 M⁻¹ s⁻¹
[7]
  Kd: 3.16 nM
  Relative Affinity: 1 fold vs 25 (Tocilizumab)
  koff: 0.000341 s⁻¹
  kon: 108000 M⁻¹ s⁻¹
[8]
  koff: 0.000341 s⁻¹
  kon: 108000 M⁻¹ s⁻¹
[9]
  Kd: 3.16 nM
[10]
  Kd: 1.71 nM
  Relative Affinity: 1 fold vs 25 (Tocilizumab)
  koff: 0.000353 s⁻¹
  kon: 207000 M⁻¹ s⁻¹
[11]
  Kd: 2.8 nM
  Relative Affinity: 1 fold vs 25 (Tocilizumab)
  koff: 0.00035 s⁻¹
  kon: 125000 M⁻¹ s⁻¹
[12]
  pH dependence (Fold of affinity decrease): 0.48 fold
[13]
  Kd: 1.34 nM
  Relative Affinity: 1 fold vs 25 (Tocilizumab)
  koff: 0.000252 s⁻¹
  kon: 188000 M⁻¹ s⁻¹

B2: 206# (antibody, human IgG1, kappa, V domains shown)
VH: B1 VH with Y51F, I57M, T103I
VL: B1 VL with Q89G, T93R
notes: also called Sample # 206
[14]
  pH dependence (Fold of affinity decrease): 28.4 fold
[3]
  IC50 (µg/ml), inhibition of DS-1 cell proliferation, MTS assay, IL6 2 ng/mL: 0.0339 µg/mL
[4]
  Kd: 0.00075 nM
  koff: 1.41e-07 s⁻¹
  kon: 189000 M⁻¹ s⁻¹
[5]
  Kd: 0.00075 nM
  Relative Affinity: 3800 fold vs 25 (Tocilizumab)
  koff: 1.41e-07 s⁻¹
  kon: 189000 M⁻¹ s⁻¹
[6]
  Kd: 0.0213 nM
  koff: 8.78e-06 s⁻¹
  kon: 412000 M⁻¹ s⁻¹
[11]
  Kd: 0.000587 nM
  Relative Affinity: 4770 fold vs 25 (Tocilizumab)
  koff: 1.35e-07 s⁻¹
  kon: 230000 M⁻¹ s⁻¹

B3: 202# (antibody, human IgG1, kappa, V domains shown)
VH: B1 VH with S99V, T103I
VL: B1 VL with Q89G, T93R
[14]
  pH dependence (Fold of affinity decrease): 0.74 fold
[3]
  IC50 (µg/ml), inhibition of DS-1 cell proliferation, MTS assay, IL6 2 ng/mL: 0.0686 µg/mL
[4]
  Kd: 0.0288 nM
  koff: 2.46e-06 s⁻¹
  kon: 85300 M⁻¹ s⁻¹
[5]
  Kd: 0.0288 nM
  Relative Affinity: 99 fold vs 25 (Tocilizumab)
  koff: 2.46e-06 s⁻¹
  kon: 85300 M⁻¹ s⁻¹
[6]
  Kd: 0.0214 nM
  koff: 6.1e-06 s⁻¹
  kon: 284000 M⁻¹ s⁻¹
[11]
  Kd: 0.0236 nM
  Relative Affinity: 119 fold vs 25 (Tocilizumab)
  koff: 3.17e-06 s⁻¹
  kon: 134000 M⁻¹ s⁻¹

Reference: patent publication US20190315854A1 (BEIJING VDJBIO, published 2019)
